Consider nine molecules from patent US9828595B2, “Thermostable asparaginase variants and polynucleotides encoding same” (Novozymes A/S, priority 2012, dated 2017).

Data set [1] has as its target T1, Aspergillus niger asparaginase, wild type, SEQ ID NO: 10 (Aspergillus niger, UniProt A2QBE5).
T1 construct: enzyme preparation tested in Nessler assay
T1 sequence (A2QBE5 18-378): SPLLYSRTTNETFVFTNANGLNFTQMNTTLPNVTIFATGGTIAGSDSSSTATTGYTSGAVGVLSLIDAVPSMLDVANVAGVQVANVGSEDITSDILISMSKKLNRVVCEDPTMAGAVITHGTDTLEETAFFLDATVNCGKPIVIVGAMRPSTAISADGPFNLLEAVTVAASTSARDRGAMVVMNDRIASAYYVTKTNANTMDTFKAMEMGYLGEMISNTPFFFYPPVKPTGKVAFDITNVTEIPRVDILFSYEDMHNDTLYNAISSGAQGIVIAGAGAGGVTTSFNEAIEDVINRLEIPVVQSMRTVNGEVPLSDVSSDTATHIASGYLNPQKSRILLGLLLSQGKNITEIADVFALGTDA
Nature of the data set: Effect of xylitol on asparaginase activity, A. niger wt. The data set is classed as biochemical. As to conditions: buffer 70.8 g + 29.2 g xylitol, pH 6, 37° C.; activity in buffer without xylitol = 100%. As to the method:
(§1) Example 13: Asparaginase Activity Assay—Used in Example 14
(§2) Asparaginase hydrolyses asparagine to aspartic acid and ammonium. Produced ammonium is determined using Nessler's reagent.
(§3) Activity is determined relative to a standard of known activity in ASNU or to a relevant control sample. Activity as determined according to this assay is referred to as nASNU.
(§4) Mix buffer and asparagine and let it equilibrate at 37° C. for 10-15 min. Add enzyme standard or sample and incubate for 10 min at 37° C. Add TCA to stop the reaction.
(§5) Ammonium Determination (Nessler Assay)
(§6) Milli-Q water, sample and Nessler's reagent is added to the microtiter plate. Shake for 10 sec and then leave to incubate for 10 min before shaking again and reading at 440 nm.
(§7) Example 14: Testing the Effect of NaCl and Xylitol on Enzyme Activity
(§8) To test the effect of NaCl or xylitol on asparaginase activity, the compounds were added directly to the buffer and asparaginase activity measured using the standard assay described in Example 13. NaCl was tested in two concentrations and xylitol in one.
(§9) Buffer: 20 mM citric acid buffer, pH 6, 0.001% triton X100:
(§10) Xylitol: 70.8 g buffer+29.2 g xylitol
(§11) The measured activity in the presence of either NaCl or xylitol was compared to the activity in buffer without NaCl and xylitol (set as 100%).

In data set [2] the target is T2, Aspergillus oryzae asparaginase, wild type (Wt enzyme), SEQ ID NO: 2 (Aspergillus oryzae, UniProt Q2URI4).
T2 construct: Nessler assay with xylitol or NaCl
Nature of the data set: Effect of xylitol on asparaginase activity, Wt enzyme. The data set is classed as biochemical. Particulars: buffer 70.8 g + 29.2 g xylitol, pH 6, 37° C.; activity in buffer without xylitol = 100%. As to the method:
as §1, §2, §3, §4, §5, §6, §7, §8, §9, §10, §11

Substrate in data set [3]: NC(=O)C[C@H](N)C(=O)O
Nature of the data set: Km and kcat determination, JN161. The data set is classed as biochemical, Aspergillus oryzae. As to conditions: other: L-asparagine 0.22-26.6 mM, pH 5.0, 50° C., 10 min. As to the method:
(§12) Example 15: Km and Kcat Determination
(§13) Purified enzyme was diluted with 20 mM sodium acetate buffer pH 5.5 to a solution of a specified activity around 2 rASNU/ml. Ten microliters of enzyme solution was added to 100 microL of preincubated substrate solution containing L-asparagine in different concentration (0.22-26.6 mM) constructed by dissolving L-asparagine monohydrate in 100 mM sodium acetate buffer pH 5.0 including 0.02% TritonX-100. After 10 min incubation at 50° C., the amount of generated ammonia in the reaction mixture was measured by using Ammonia Test Kit (Wako Pure Chemicals, Japan) following the package insert protocol. The Km and Vmax were determined from Michaelis-Menten equation, and kcat was calculated using Vmax.

Substrate in data set [4]: NC(=O)C[C@H](N)C(=O)O
Nature of the data set: Km and kcat determination, JN178. Particulars: other: L-asparagine 0.22-26.6 mM, pH 5.0, 50° C., 10 min. The data set is classed as biochemical, Aspergillus oryzae. As to the method:
as §12, §13

Substrate in data set [5]: NC(=O)C[C@H](N)C(=O)O
Nature of the data set: Km and kcat determination, JN183. As to conditions: other: L-asparagine 0.22-26.6 mM, pH 5.0, 50° C., 10 min. Format: biochemical, Aspergillus oryzae. As to the method: as §12, §13

Substrate in data set [6]: NC(=O)C[C@H](N)C(=O)O
Put plainly: Km and kcat determination, JN167. The data set is classed as biochemical, Aspergillus oryzae. Particulars: other: L-asparagine 0.22-26.6 mM, pH 5.0, 50° C., 10 min. As to the method:
as §12, §13

Substrate in data set [7]: NC(=O)C[C@H](N)C(=O)O
Nature of the data set: Km and kcat determination, JN180. The data set is classed as biochemical, Aspergillus oryzae. As to conditions: other: L-asparagine 0.22-26.6 mM, pH 5.0, 50° C., 10 min. As to the method: as §12, §13

Substrate in data set [8]: NC(=O)C[C@H](N)C(=O)O
Nature of the data set: Km and kcat determination, JN182. Format: biochemical, Aspergillus oryzae. Particulars: other: L-asparagine 0.22-26.6 mM, pH 5.0, 50° C., 10 min. As to the method: as §12, §13

Substrate in data set [9]: NC(=O)C[C@H](N)C(=O)O
Put plainly: Km and kcat determination, JN181. The data set is classed as biochemical, Aspergillus oryzae. Particulars: other: L-asparagine 0.22-26.6 mM, pH 5.0, 50° C., 10 min. As to the method: as §12, §13

Substrate in data set [10]: NC(=O)C[C@H](N)C(=O)O
Put plainly: Km and kcat determination, WT. Format: biochemical, Aspergillus oryzae. As to conditions: other: L-asparagine 0.22-26.6 mM, pH 5.0, 50° C., 10 min. As to the method: as §12, §13

Positions count from the first letter of the chain named. Names and notes keep the numbering of the source.

For `OC[C@@H](O)[C@H](O)[C@@H](O)CO` [xylitol], the “% activity xylitol” value in data set [1] is given as 176%; in [2], 158%.

B1: Aspergillus oryzae asparaginase variant JN161: JN070 (N70K S307A A323R T327V A349Q S351A V353I, SEQ ID NO: 4) with K122A P241E K290V S299A S338W (Aspergillus … (protein)
chain: ATDSNVTYVFTNPNGLNFTQMNTTLPNVTIFATGGTIAGSSADKTATTGYKAGAVGIQTLIDAVPEMLNVANVAGVQVTNVGSPDITSDILLRLSAQINEVVCNDPTMAGAVVTHGTDTLEESAFFLDATVNCRKPVVIVGAMRPSTAISADGPLNLLQSVTVAASPKARDRGALIVMNDRIVSAFYASKTNANTVDTFKAIEMGNLGEVVSNKEYFFYPPVKPTGKTEVDIRNITSIPRVDILYSYEDMHNDTLYSAIDNGAVGIVIAGSGAGSVSTPFAAAMEDITTKHNIPIVRSTRVGNGEVPSSAEWSQIASGYLNPQKARILLGLLLAQGKSIEEMRAVFERIGVA
notes: purified; expressed in Aspergillus
As usually defined, the Km is the concentration of substrate that gives half-maximal velocity. A word on the kcat: it is the maximal rate divided by the concentration of active sites. As for B1, in [3], the Km stood at 690 µM and the kcat was 172 s⁻¹.

B2: Aspergillus oryzae asparaginase variant JN178: JN070 (N70K S307A A323R T327V A349Q S351A V353I, SEQ ID NO: 4) with K122A K240R P241E S299A S334P (Aspergillus … (protein)
chain: B1 chain with K214R, V264K, S308P, W312S
notes: as for B1
Regarding B2, in [4], the Michaelis constant (Km) amounted to 880 µM and the kcat is 127 s⁻¹.

B3: Aspergillus oryzae asparaginase variant JN183: JN070 (N70K S307A A323R T327V A349Q S351A V353I, SEQ ID NO: 4) with K122A P241E S299A S334P S338W (Aspergillus … (protein)
chain: B1 chain with V264K, S308P
notes: as for B1
Regarding B3, in data set [5], the Km was 910 µM and the kcat was 189 s⁻¹.

B4: Aspergillus oryzae asparaginase variant JN167: JN070 (N70K S307A A323R T327V A349Q S351A V353I, SEQ ID NO: 4) with K122A P241E S299A S334P (Aspergillus oryzae … (protein)
chain: B1 chain with V264K, S308P, W312S
notes: as for B1
B4: in [6], the Km was found to be 670 µM and the kcat stood at 127 s⁻¹.

B5: Aspergillus oryzae asparaginase variant JN180: JN070 (N70K S307A A323R T327V A349Q S351A V353I, SEQ ID NO: 4) with K122A K240R P241E S299A S334P E337S … (protein)
chain: B1 chain with K214R, V264K, S308P, E311S, W312S
notes: as for B1
As to B5, in data set [7], the Michaelis constant (Km) came out at 830 µM and the kcat came out at 185 s⁻¹.

B6: Aspergillus oryzae asparaginase variant JN182: JN070 (N70K S307A A323R T327V A349Q S351A V353I, SEQ ID NO: 4) with K122A P241E S299A S334P E337S (Aspergillus … (protein)
chain: B1 chain with V264K, S308P, E311S, W312S
notes: as for B1
Consider B6, for which, in data set [8], the Km came to 910 µM and the kcat came to 186 s⁻¹.

B7: Aspergillus oryzae asparaginase variant JN181: JN070 (N70K S307A A323R T327V A349Q S351A V353I, SEQ ID NO: 4) with K122A K240R P241E K253R S299A S334P E337S … (protein)
chain: B1 chain with K214R, K227R, V264K, S308P, E311S, W312S
notes: as for B1
As for B7, in data set [9], the Km was determined as 580 µM and the kcat amounted to 138 s⁻¹.

B8: Aspergillus oryzae asparaginase, wild type (WT), SEQ ID NO: 2 (Aspergillus oryzae RIB40) (protein)
chain: ATDSNVTYVFTNPNGLNFTQMNTTLPNVTIFATGGTIAGSSADNTATTGYKAGAVGIQTLIDAVPEMLNVANVAGVQVTNVGSPDITSDILLRLSKQINEVVCNDPTMAGAVVTHGTDTLEESAFFLDATVNCRKPVVIVGAMRPSTAISADGPLNLLQSVTVAASPKARDRGALIVMNDRIVSAFYASKTNANTVDTFKAIEMGNLGEVVSNKPYFFYPPVKPTGKTEVDIRNITSIPRVDILYSYEDMHNDTLYSAIDNGAKGIVIAGSGSGSVSTPFSAAMEDITTKHNIPIVASTRTGNGEVPSSAESSQIASGYLNPAKSRVLLGLLLAQGKSIEEMRAVFERIGVA
notes: purified
Take B8: in data set [10], the Km was found to be 950 µM and the kcat amounted to 121 s⁻¹.
